The target of assay [1] is T1, ABI5-GST (Arabidopsis thaliana, UniProt Q9SJN0 1-442).
T1 construct: ABI5, Arabidopsis thaliana, At2g36270, full-length CDS in pGEX4T-1; printed both as ABI5-GST and as GST-ABI5; also called GST-ABI5; source: Escherichia coli transetta
T1 sequence (looked up): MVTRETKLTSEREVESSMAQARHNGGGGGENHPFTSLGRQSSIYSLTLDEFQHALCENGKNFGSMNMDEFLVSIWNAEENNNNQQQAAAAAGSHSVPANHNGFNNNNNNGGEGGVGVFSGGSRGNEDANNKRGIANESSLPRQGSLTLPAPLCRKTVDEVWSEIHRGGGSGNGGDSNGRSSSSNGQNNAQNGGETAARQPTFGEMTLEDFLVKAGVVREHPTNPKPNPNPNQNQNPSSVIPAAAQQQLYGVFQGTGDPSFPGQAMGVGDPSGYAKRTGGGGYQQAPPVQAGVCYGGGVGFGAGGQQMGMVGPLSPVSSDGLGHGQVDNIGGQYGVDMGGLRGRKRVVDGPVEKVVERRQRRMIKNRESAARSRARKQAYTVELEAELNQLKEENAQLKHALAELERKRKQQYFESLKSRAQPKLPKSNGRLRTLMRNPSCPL
Nature of the assay: pull-down; in vitro; SPL3 and ABI5 fusion proteins incubated with amylose resin overnight in column buffer (20 mM Tris-HCl pH 7.5, 200 mM NaCl, 1 mM PMSF, 1 mM DTT); blots with anti-GST and anti-MBP. The settings on record: both partners purified.

The target in assay [2] is T1, ABI5-GST. As to the kind of experiment: pull-down; in vitro; fusion proteins incubated with glutathione resin overnight in column buffer (20 mM Tris-HCl pH 7.5, 200 mM NaCl, 1 mM PMSF, 1 mM DTT); blots with anti-GST and anti-MBP. Particulars: both partners purified.

B1: MBP-SPL3 (natural protein, Arabidopsis thaliana, UniProt P93015 1-131, looked up)
chain: MSMRRSKAEGKRSLRELSEEEEEEEETEDEDTFEEEEALEKKQKGKATSSSGVCQVESCTADMSKAKQYHKRHKVCQFHAKAPHVRISGLHQRFCQQCSRFHALSEFDEAKRSCRRRLAGHNERRRKSTTD
notes: SPL3, Arabidopsis thaliana, At2g33810, full-length CDS in pMAL-c2X; source: Escherichia coli transetta
In the case of B1, the binding result in assay [1] is recorded as “binds”.

B2: MBP-SPL9 (natural protein, Arabidopsis thaliana, UniProt Q700W2 1-375, looked up)
chain: MEMGSNSGPGHGPGQAESGGSSTESSSFSGGLMFGQKIYFEDGGGGSGSSSSGGRSNRRVRGGGSGQSGQIPRCQVEGCGMDLTNAKGYYSRHRVCGVHSKTPKVTVAGIEQRFCQQCSRFHQLPEFDLEKRSCRRRLAGHNERRRKPQPASLSVLASRYGRIAPSLYENGDAGMNGSFLGNQEIGWPSSRTLDTRVMRRPVSSPSWQINPMNVFSQGSVGGGGTSFSSPEIMDTKLESYKGIGDSNCALSLLSNPHQPHDNNNNNNNNNNNNNNTWRASSGFGPMTVTMAQPPPAPSQHQYLNPPWVFKDNDNDMSPVLNLGRYTEPDNCQISSGTAMGEFELSDHHHQSRRQYMEDENTRAYDSSSHHTNWSL
notes: SPL9, Arabidopsis thaliana, At2g42200, full-length CDS in pMAL-c2X; source: Escherichia coli transetta, purified
Take B2: the binding result in assay [2] is recorded as “binds”.
